# From patent US20230365701A1 (Pfizer, published 2023)
# Key:
# human LTBR protein = biological target: T1, human LTBR protein (human, UniProt P36941 31-227, limits assumed); experiment: not stated at this place (SPR by the heading before paragraph 293, where the value is repeated); human LTBR
# T1 construct: Protein used for the KD, binning and crystallization; In the crystal the entire extracellular domain was ordered; also called lymphotoxin beta receptor; TNFR3
# [1] = biological target: chimeric LTBR with a human extracellular domain and mouse transmembrane and intracellular domains, on CT26 … (human; mouse); experiment: cell-based or functional assay
# [2] = biological target: T2, human LTBR on cells (endogenous on HUVEC, HT29, primary human fibroblasts and moDC; LTBR-expressing HEK293) (human, UniProt P36941 31-435); experiment: cell-based or functional assay
# [3] = biological target: cynomolgus monkey LTBR on primary cynomolgus monkey fibroblasts (cynomolgus monkey, UniProt P36941 1-435 (human entry)); experiment: cell-based or functional assay
# [4] = biological target: T2, human LTBR on cells (endogenous on …); experiment: flow cytometry with AF647-labeled antibody on HUVEC (endogenous human LTBR), 1.5 hours on ice
# Procedure: (§1) Endogenous human LTBR binding: 1E01 binding to endogenous LTBR on human endothelial cells (human umbilical vein endothelial cells (HUVEC)) and tumor cells (HT29 human colorectal carcinoma cells) was assessed in a flow cytometry-based assay using AF647-labeled antibody and Quantbrite™ beads. Cells were incubated with antibody for 1.5 hours on ice prior to endpoint analysis. Results confirmed the binding of 1E01 to endogenous human LTBR.
# [5] = biological target: T2, human LTBR on cells (endogenous on …); experiment: flow cytometry with AF647-labeled antibody on HT29 cells (endogenous human LTBR), 1.5 hours on ice
# Procedure: as §1
# T2 sequence (P36941 31-435 limits assumed): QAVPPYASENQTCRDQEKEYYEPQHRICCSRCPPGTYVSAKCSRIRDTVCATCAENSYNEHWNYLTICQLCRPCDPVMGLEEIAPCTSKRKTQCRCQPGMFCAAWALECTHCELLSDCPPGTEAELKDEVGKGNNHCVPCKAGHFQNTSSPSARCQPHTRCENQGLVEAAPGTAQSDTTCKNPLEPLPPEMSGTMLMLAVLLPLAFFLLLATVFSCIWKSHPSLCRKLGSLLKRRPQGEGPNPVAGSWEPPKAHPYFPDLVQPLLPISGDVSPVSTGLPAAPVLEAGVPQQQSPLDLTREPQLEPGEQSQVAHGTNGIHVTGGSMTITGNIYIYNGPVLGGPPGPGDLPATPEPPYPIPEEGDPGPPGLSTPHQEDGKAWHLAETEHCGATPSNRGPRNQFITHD
# T1 sequence (P36941 31-227 limits assumed): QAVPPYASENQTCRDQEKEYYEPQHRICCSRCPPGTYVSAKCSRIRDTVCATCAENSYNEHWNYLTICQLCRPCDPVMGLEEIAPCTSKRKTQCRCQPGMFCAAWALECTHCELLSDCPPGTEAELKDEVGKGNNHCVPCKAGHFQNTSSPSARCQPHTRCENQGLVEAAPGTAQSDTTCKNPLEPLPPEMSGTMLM
# Sequence of chimeric LTBR with a human extracellular domain and mouse transmembrane and intracellular domains, on CT26 … (human; mouse) (chain, as listed by the source mutant limits assumed): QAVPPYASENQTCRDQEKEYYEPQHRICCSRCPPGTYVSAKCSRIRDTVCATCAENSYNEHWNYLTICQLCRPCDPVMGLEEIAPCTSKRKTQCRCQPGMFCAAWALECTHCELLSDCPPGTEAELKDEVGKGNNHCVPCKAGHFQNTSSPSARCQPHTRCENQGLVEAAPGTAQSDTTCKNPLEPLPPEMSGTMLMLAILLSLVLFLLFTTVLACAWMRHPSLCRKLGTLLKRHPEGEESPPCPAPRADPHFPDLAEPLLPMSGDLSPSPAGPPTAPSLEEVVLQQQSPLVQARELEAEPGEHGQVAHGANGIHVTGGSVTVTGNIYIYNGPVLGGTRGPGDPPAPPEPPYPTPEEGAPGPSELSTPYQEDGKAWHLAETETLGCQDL
# Sequence of cynomolgus monkey LTBR on primary cynomolgus monkey fibroblasts (P36941 other isoform, or with tags, fused parts or gaps limits assumed): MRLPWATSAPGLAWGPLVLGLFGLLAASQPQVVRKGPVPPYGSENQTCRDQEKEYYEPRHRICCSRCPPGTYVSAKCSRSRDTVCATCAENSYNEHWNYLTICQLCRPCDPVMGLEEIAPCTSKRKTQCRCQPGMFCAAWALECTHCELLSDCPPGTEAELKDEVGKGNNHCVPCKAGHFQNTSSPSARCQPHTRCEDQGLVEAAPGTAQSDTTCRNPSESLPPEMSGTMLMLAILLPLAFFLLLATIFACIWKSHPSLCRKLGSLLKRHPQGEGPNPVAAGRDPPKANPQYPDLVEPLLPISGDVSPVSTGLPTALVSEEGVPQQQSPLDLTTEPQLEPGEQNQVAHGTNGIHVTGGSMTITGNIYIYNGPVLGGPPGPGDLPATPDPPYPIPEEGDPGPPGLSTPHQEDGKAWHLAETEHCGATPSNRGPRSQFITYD
Binder,Kd (human LTBR protein) [nM],"NFkB Activation, EC50 (ug/mL), CT26 hEC-mTM-mIC NFkB luciferase reporter cells [1] [µg/mL]","CXCL10 Release, EC50 (ug/mL), primary human dermal fibroblasts [2] [µg/mL]","CXCL10 Release, EC50 (ug/mL), primary cyno fibroblasts [3] [µg/mL]",EC50 [4] [ng/mL],EC50 [5] [ng/mL]
"anti-LTBR clone 1E01 (Fab clone ""1E01"") (Fab, V domains shown, Only VH and VL are tied to the clone; also called 1E01 antibody) VH: QVQLVQSGAEVKKPGSSVKVSCKASGGTFSSYFWSWVRQAPGQGLEWMGRFYSGGSANYNPSLKERVTITADESTSTAYMELSSLRSEDTAVYYCARERRGYSGGFEIWGQGTLVTVSS VL: not shown",115,–,–,–,–,–
"1E01 tetravalent antibody (antibody, human IgG1, kappa, Extended heavy chain VH-CH1-linker-VH-CH1-hinge-CH2-CH3; AF647-labeled in the flow cytometry assay; also called tetravalent 1E01) heavy: QVQLVQSGAEVKKPGSSVKVSCKASGGTFSSYFWSWVRQAPGQGLEWMGRFYSGGSANYNPSLKERVTITADESTSTAYMELSSLRSEDTAVYYCARERRGYSGGFEIWGQGTLVTVSSASTKGPSVFPLAPSSKSTSGGTAALGCLVKDYFPEPVTVSWNSGALTSGVHTFPAVLQSSGLYSLSSVVTVPSSSLGTQTYICNVNHKPSNTKVDKKVEPKSCGGGGSQVQLVQSGAEVKKPGSSVKVSCKASGGTFSSYFWSWVRQAPGQGLEWMGRFYSGGSANYNPSLKERVTITADESTSTAYMELSSLRSEDTAVYYCARERRGYSGGFEIWGQGTLVTVSSASTKGPSVFPLAPSSKSTSGGTAALGCLVKDYFPEPVTVSWNSGALTSGVHTFPAVLQSSGLYSLSSVVTVPSSSLGTQTYICNVNHKPSNTKVDKKVEPKSCDKTHTCPPCPAPEAAGAPSVFLFPPKPKDTLMISRTPEVTCVVVDVSHEDPEVKFNWYVDGVEVHNAKTKPREEQYNSTYRVVSVLTVLHQDWLNGKEYKCKVSNKALPAPIEKTISKAKGQPREPQVYTLPPSREEMTKNQVSLTCLVKGFYPSDIAVEWESNGQPENNYKTTPPVLDSDGSFFLYSKLTVDKSRWQQGNVFSCSVMHEALHNHYTQKSLSLSPGK light: not shown",–,0.00173,0.00231,0.00902,76,73
